From paper PMC5537072, “Anthranilate phosphoribosyltransferase from the hyperthermophilic archaeon Thermococcus kodakarensis shows maximum activity with zinc and forms a unique dimeric structure” (FEBS Open Bio, 2017)

B1: TkTrpD (Thermococcus kodakarensis KOD1) (protein)
chain: MSLLAKIVDGKNLSFEEAYELFNELKGSDGVLIGAYLAALQTKGYTGEELAGLARAMRDSAVKLDLGKVADTAGTGGDGSSTINVSTASALILSAFTRVAKHGNVSITSKSGSANVLEALGLNIRVSPERAREMVESTNFTFIFAPAYHPALRPIMPVRKALGIKTVFNVIGPLANPADPAYQVVGVNSPELLEPVAEALEFLGVERALVVHGSGMDEVSPHRETLVLEVGNGVERYTLSPEDFGIEPVKPLPCSSPEESAARIKAVLGGSGRREDRDFILVNASAALYASGVAEDFREGLEMAREALGQGMLEKLEEIACLSKS
notes: homodimer

Experiments:
[1] = test system: Nc1ccccc1C(=O)O; assay: purified protein; format: biochemical, Thermococcus kodakarensis; settings: 1 mM PRPP, 100 μM ZnCl2, 100 mM Tris/HCl pH 8.5, 55 °C
[2] = substrate: O=P(O)(O)OC[C@H]1O[C@H](OP(=O)(O)OP(=O)(O)O)[C@H](O)[C@@H]1O; assay: purified protein; format: biochemical, Thermococcus kodakarensis; settings: 4 μM anthranilate, 100 μM ZnCl2, 100 mM Tris/HCl pH 8.5, 55 °C

| Molecule | Km [1] [µM] | Km [2] [µM] |
| --- | --- | --- |
| TkTrpD (Thermococcus kodakarensis KOD1) | 2.2 | – |
| B1 | – | 250 |
